Experimental data as given in paper PMC3961685, “Origin of the Proton-transfer Step in the Cofactor-free (1H)-3-Hydroxy-4-oxoquinaldine 2,4-Dioxygenase” (The Journal of Biological Chemistry, 2014).

Tests used:
[1] = molecular target: T1, HOD (WT HOD = HOD C69S); (1H)-3-hydroxy-4-oxoquinaldine 2,4-dioxygenase (Paenarthrobacter nitroguajacolicus, UniProt O31266, C69S); experiment: anaerobic stopped-flow, QND deprotonation at […] nm, kobs vs [QND] fit; format: binding
T1 construct: full-length HOD C69S in pQE30 (His-tag vector, Ni column); ~31 kDa monomer

[2] = molecular target: T2, HOD (WT HOD = HOD C69S); (1H)-3-hydroxy-4-oxoquinaldine 2,4-dioxygenase (Paenarthrobacter nitroguajacolicus, UniProt O31266, C69S/H251A); experiment: X-ray crystal structure, […] Å, crystal soaked with QND; format: binding; details: 2 mM QND soak about 2 h, pH 7.0; active site
T2 construct: full-length HOD C69S in pQE30 (His-tag vector, Ni column); ~31 kDa monomer

Cc1[nH]c2ccccc2c(=O)c1O = experiment: purified protein; format: biochemical, Paenarthrobacter nitroguajacolicus; details: pH 6.5, air-saturated 0.1 M MTE, 5 mM NaCl, 2 mM EDTA, 20 °C, O2 co-substrate, also measured at pH 10.5

T1 sequence (O31266 whole entry C69S): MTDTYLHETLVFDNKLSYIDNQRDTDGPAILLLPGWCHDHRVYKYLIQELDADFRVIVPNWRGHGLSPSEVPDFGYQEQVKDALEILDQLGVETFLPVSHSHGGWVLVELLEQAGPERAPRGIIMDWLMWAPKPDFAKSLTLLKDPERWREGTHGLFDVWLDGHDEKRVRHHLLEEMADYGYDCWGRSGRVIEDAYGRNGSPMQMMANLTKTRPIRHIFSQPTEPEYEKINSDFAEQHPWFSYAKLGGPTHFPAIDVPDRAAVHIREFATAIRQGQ
T2 sequence (O31266 whole entry C69S/H251A): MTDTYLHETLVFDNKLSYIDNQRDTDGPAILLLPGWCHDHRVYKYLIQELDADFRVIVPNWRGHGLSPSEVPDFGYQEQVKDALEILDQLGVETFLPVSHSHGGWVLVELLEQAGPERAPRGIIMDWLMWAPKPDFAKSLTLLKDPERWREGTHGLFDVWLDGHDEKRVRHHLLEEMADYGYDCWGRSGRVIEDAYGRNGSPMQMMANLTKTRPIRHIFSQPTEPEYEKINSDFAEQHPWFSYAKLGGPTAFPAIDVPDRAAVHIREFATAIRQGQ

Compound	Kd [1] [µM]	X-ray crystal structure, 1.95 Å, crystal soaked with QND [2]	Km (Cc1[nH]c2ccccc2c(=O)c1O) [µM]	kcat (Cc1[nH]c2ccccc2c(=O)c1O) [s⁻¹]
Cc1[nH]c2ccccc2c(=O)c1O [QND, (1H)-3-hydroxy-4-oxoquinaldine]	214 ± 9	we solved the x-ray structure of this variant in complex with the QND substrate		
HOD (WT HOD = HOD C69S); (1H)-3-hydroxy-4-oxoquinaldine 2,4-dioxygenase (Paenarthrobacter nitroguajacolicus; C69S/D126A)			20.9 ± 0.6	0.19 ± 0.01
HOD (WT HOD = HOD C69S); (1H)-3-hydroxy-4-oxoquinaldine 2,4-dioxygenase (Paenarthrobacter nitroguajacolicus; C69S)			3.2 ± 0.1	16.3 ± 0.1
HOD (WT HOD = HOD C69S); (1H)-3-hydroxy-4-oxoquinaldine 2,4-dioxygenase (Paenarthrobacter nitroguajacolicus; C69S/H251A)			58.9 ± 14.6	0.0006 ± 0.0001
